Experiments:
[1] = molecular target: cynomolgus monkey PCSK9, V5-6xHIS tagged (cynomolgus monkey); experiment: KinExA solution equilibrium, PCSK9-coated beads; cyno PCSK9
[2] = molecular target: cynomolgus monkey PCSK9, V5-6xHIS tagged (cynomolgus monkey); experiment: SPR (Biacore 2000), antibody amine-coupled to the chip, PCSK9 as analyte, pH 7.4
[3] = molecular target: cynomolgus monkey PCSK9, V5-6xHIS tagged (cynomolgus monkey); experiment: Biacore solution equilibrium assay, free PCSK9 measured on immobilised 21B12

Kd [1] [nM]	Kd [2] [nM]	Kd [3] [nM]	Binder
0.016	0.87	–	16F12 IgG4 (16F12, anti-PCSK9 huIgG4) (antibody, V domains shown) VH: QVHLVESGGGVVQPGRSLRLSCAASGFTFNSFGMHWVRQAPGKGLEWVALIWSDGSDEYYADSVKGRFTISRDNSKNTLYLQMNSLRAEDTAVYYCARAIAALYYYYGMDVWGQGTTVTVSS VL: QSVLTQPPSVSAAPGQKVTISCSGSSSNIGNNFVSWYQQLPGTAPKLLIYDYNKRPSGIPDRFSGSKSGTSATLGITGLQTGDEADYYCGTWDSSLSAYVFGTGTRVTVLQ
–	0.36	0.011	21B12 IgG4 (21B12, anti-PCSK9 huIgG4) (antibody, V domains shown) VH: QVQLVQSGAEVKKPGASVKVSCKASGYTLTSYGISWVRQAPGQGLEWMGWVSFYNGNTNYAQKLQGRGTMTTDPSTSTAYMELRSLRSDDTAVYYCARGYGMDVWGQGTTVTVSS VL: QSALTQPASVSGSPGQSITISCTGTSSDVGGYNSVSWYQQHPGKAPKLMIYEVSNRPSGVSNRFSGSKSGNTASLTISGLQAEDEADYYCNSYTSTSMVFGGGTKLTVLQ
